Substitutions are numbered along the chain they refer to. In names and notes the source's numbering stands. Where two headings read alike, the source gives them in different places.
B1: Tethered Molecule of two FGF21 P171C polypeptides (20 kDa PEG linker) (ligand)
chain: MHPIPDSSPLLQFGGQVRQRYLYTDDAQQTEAHLEIREDGTVGGAADQSPESLLQLKALKPGVIQILGVKTSRFLCQRPDGALYGSLHFDPEACSFRELLLEDGYNVYQSEAHGLPLHLPGNKSPHRDPAPRGPARFLPLPGLPPAPPEPPGILAPQPPDVGSSDPLSMVGCSQGRSPSYAS
modifications: Cys 171 of the two chains joined by one 20 kDa PEG bis-maleimide
B2: FGF21 mutant H125C, P171G, PEGylated at the N-terminus and Cys 125 (2 x 20k) (ligand)
chain: B1 chain with H126C, C172G
modifications: 20 kDa PEG on the N-terminus; 20 kDa PEG on Cys 125
B3: Tethered Molecule of two FGF21 R175C, P171G polypeptides (20 kDa PEG linker) (ligand)
chain: B1 chain with C172G, R176C
modifications: Cys 175 of the two chains joined by one 20 kDa PEG bis-maleimide
B4: FGF21 mutant R77C, P171G, PEGylated at the N-terminus and Cys 77 (2 x 20k) (ligand)
chain: B1 chain with R78C, C172G
modifications: 20 kDa PEG on the N-terminus; 20 kDa PEG on Cys 77
B5: FGF21 mutant H125C, P171G, PEGylated at the N-terminus (5k) and Cys 125 (20k) (ligand)
chain: B1 chain with H126C, C172G
modifications: 5 kDa PEG on the N-terminus; 20 kDa PEG on Cys 125
B6: Tethered Molecule of two FGF21 E37C, P171G polypeptides (20 kDa PEG linker) (ligand)
chain: B1 chain with E38C, C172G
modifications: Cys 37 of the two chains joined by one 20 kDa PEG bis-maleimide
B7: Tethered Molecule of two FGF21 G120C, P171G polypeptides (20 kDa PEG linker) (ligand)
chain: B1 chain with G121C, C172G
modifications: Cys 120 of the two chains joined by one 20 kDa PEG bis-maleimide
B8: Tethered Molecule of two FGF21 G170C polypeptides (20 kDa PEG linker) (ligand)
chain: B1 chain with G171C, C172P
modifications: Cys 170 of the two chains joined by one 20 kDa PEG bis-maleimide
B9: FGF21 mutant H125C, P171G, PEGylated at the N-terminus (10k) and Cys 125 (20k) (ligand)
chain: B1 chain with H126C, C172G
modifications: 10 kDa PEG on the N-terminus; 20 kDa PEG on Cys 125
B10: Tethered Molecule of two FGF21 E91C, P171G polypeptides (20 kDa PEG linker) (ligand)
chain: B1 chain with E92C, C172G
modifications: Cys 91 of the two chains joined by one 20 kDa PEG bis-maleimide
B11: wild-type FGF21 (mature, un-PEGylated) (ligand)
chain: B1 chain with C172P
B12: Tethered Molecule of two FGF21 H125C, P171G polypeptides (20 kDa PEG linker) (ligand)
chain: B1 chain with H126C, C172G
modifications: Cys 125 of the two chains joined by one 20 kDa PEG bis-maleimide
B13: Tethered Molecule of two FGF21 R77C, P171G polypeptides (20 kDa PEG linker) (ligand)
chain: B1 chain with R78C, C172G
modifications: Cys 77 of the two chains joined by one 20 kDa PEG bis-maleimide

How the values were obtained:
Assay in all cases: cell-based or functional assay
[1] = biological target: beta-klotho
[2] = biological target: beta-klotho; remark: listed apart in the source
[3] = biological target: beta-klotho; remark: listed apart in the source
[4] = biological target: beta-klotho; remark: listed apart in the source
[5] = biological target: beta-klotho; remark: listed apart in the source

Binder	EC50, ELK-luciferase assay [1] [nM]	EC50, ELK-luciferase assay [2] [nM]	further results
B1	0.21		
B2		152	
B3	0.36		
B4		64	
B5		30	
B6	0.36		
B7	0.51		
B8	0.47		
B9		65	
B10	0.2		
B11			In Vitro Activity EC50, ELK-luciferase assay [3]: 3 nM; EC50, ELK-luciferase assay [4]: 3 nM; EC50, ELK-luciferase assay [5]: 0.63 nM
B12	0.21		
B13	0.25		

From US20160244497A1 (Amgen, published 2016)
